Results from patent US7449443B2, “Method for stabilization of proteins using non-natural amino acids” (California Institute of Technology, priority 2000, dated 2008).
Each block holds one molecule with its values, some of them ahead of it.

Legend:
[1] = test system: E. coli leucine auxotroph SG13009; assay: Analog incorporation assay: A1 expression in leucine auxotroph; format: cell-based; settings: leucine-free medium supplemented with analog, western blot
Protocol: Analog Incorporation Assay. The expression vector pQE-A1, which contains the coding sequences for the protein A1 (FIG. 4A) was obtained from US Army Natick RD&E Center (Natick, Mass.). The E. coli leucine auxotroph SG13009 was obtained from Qiagen (Chatsworth, Calif.) and transformed with plasmids pREP4 and pQE-A1, to yield the expression host […] medium (30 ml) supplemented with 1 mM MgSO4, 1 mM CaCl2, […], 1 mg/L thiamin and the antibiotics ampicillin (200 mg/L) and kanamycin (25 mg/L) were inoculated with 1 ml of an overnight 2×YT culture of the expression strain. […] The supernatant was removed and the cell pellets were washed with 0.9% NaCl and sedimented (5000 g, 10 min, 4° C.). The washing and sedimentation steps were repeated three times to remove residual leucine. The washed cells were then resuspended in 31 ml of supplemented […] medium, without leucine. Aliquots (5 ml) were added to test tubes containing no leucine (negative control), L-leucine (20 mg/L, positive control), DL-trifluoroleucine (40 mg/L) or DL-hexafluoroleucine (40 mg/L). The cultures were grown for 10 min at 37° C., and isopropyl-β-D-thiogalactopyranoside (IPTG) was added to a final concentration of 1 mM. […] The whole cell lysate was analyzed by 15% SDS-PAGE. The proteins were detected by western blotting with an antibody specific for the N-terminal His-Tag of A1 (FIG. 4B).

LeuRS = LeuRS (Escherichia coli, UniProt P07813); assay: Level of Tfl incorporation versus leucine concentration in expression medium; format: cell-based, E. coli; settings: estimated from 50% substitution at leucine 8 mg/L (50 μM) and Tfl (DL) 100 mg/L (540 μM)
Protocol: Normal leucine concentration in expression medium is 40 mg/L. The extent of incorporation is determined by amino acid analysis.
Protein Expression and Purification. M9 medium (1 L) supplemented as described above was inoculated with 30 ml of fresh overnight culture of the expression strain. After the culture had grown to OD600 of 1.0, it was subjected to centrifugation and washing procedures as described above. The cell pellet was suspended in 1 L M9 medium supplemented with trifluoroleucine (100 mg/L) and leucine in appropriate concentrations. IPTG was added after 10 min to induce protein expression. The expression of protein was monitored by removing an aliquot (1 ml) of the culture every hour and analyzing by SDS-PAGE. Cells were collected after 3 hr by centrifugation (5000 g, 15 min, 4° C.). The pellets were resuspended in 20 ml of buffer A and stored at −80° C. overnight. […] Extent of trifluoroleucine incorporation was determined by amino acid analysis (DNA/Protein Analysis Facility, Cornell University) and MALDI mass spectrometry (Protein/Peptide Micro Analytical Laboratory, Caltech).
The degree of substitution is determined through the diminution of leucine mole fractions from amino acid analysis (AAA). […]

[2] = molecular target: oligonucleotides containing the AP-1 binding site; assay: Mobility shift (gel-retardation) assay, AP-1; settings: densitometry analysis of mobility shift assay
From the text: (§1) (FIG. 3B) Leu-bZip binds to both the AP-1 and CREB binding sites with equal affinities even though the spacing between the half-sites of DNA is different.

[3] = molecular target: oligonucleotides containing the CREB binding site; assay: Mobility shift (gel-retardation) assay, CREB; settings: densitometry analysis of mobility shift assay
From the text: as §1

[4] = test system: nonspecific sequence (NON) oligonucleotides; assay: Mobility shift (gel-retardation) assay, nonspecific sequence; format: binding
From the text: as §1

[5] = CD thermal unfolding of GCN4-p1 coiled-coil peptides; format: physicochemical
Protocol: (§2) Circular Dichroism (CD) Analysis. CD spectra were recorded on an Aviv 62DS spectropolarimeter (Lakewood, N.J.) in PBS buffer, pH 7.4. All peptide concentrations were determined by amino acid analysis of a stock solution (5 mg/ml). Experiments were performed in a rectangular cell with pathlength of 1 cm for low concentration samples and pathlength of 1 mm for high concentration samples. Spectra were scanned from 250 nm to 200 nm with data taken every 1 nm. The temperature of the solution was maintained by a thermostatically controlled cuvette holder (HP model 89101A). Temperature scans were performed from 0° C. to 100° C. in 1° C. steps. Three scans were performed on a single sample and averaged. Each data point was collected after 30 seconds of thermal equilibration at the desired temperature. Urea titration scans were performed manually starting with the 8 M concentrated sample followed by serial dilution to the desired urea concentration. At each concentration, the sample was allowed to equilibrate for 5 min before recording the CD signal.
(§3) The analysis of CD thermal melting data was performed according to a previously described procedure using a two-state model (Schneider, J. P.; Lear, J. D.; DeGrado, W. F. J. Am. Chem. Soc. 1997, 119, 5742-5743). Temperature-dependent ellipticity data for each protein at different concentrations were fitted globally using a non-linear least-squares fitting procedure supplied with the Origin 6.0 software. For wild-type A1, the concentrations used for curve fitting were 10 and 100 μM, while 2 and 100 μm were used to fit data for the 92% fluorinated A1. The thermodynamic quantities Tm, ΔHm, ΔCp and Kd were parameters of the fitting procedure and are reported in the 1 M standard state. The free energy of folding at any temperature is given by equation 1. ΔG°=ΔHm(1−T/Tm)−ΔCp((Tm−T)+T1n(T/Tm) (1)
The thermal stabilities of the coiled-coil dimers of Leu-GCN4-p1 and Tfl-GCN4-p1 were examined by CD spectroscopy (FIG. 2B). A significant increase in the thermal stability of Tfl-GCN4-p1 as compared to Leu-GCN4-p1 is reflected in an elevation of the thermal denaturation temperature from 48° C. to 61° C. The 13° C. increase in Tm is remarkable in view of the fact that no increase in the thermal stability of GCN4-p1 has been reported based solely on substitution of the leucine residues at the d-positions. […] As expected for a monomer-dimer equilibrium, the denaturation curves depend on the peptide concentrations, and their midpoints shift to higher temperature as the concentrations of peptides are increased (FIG. 2C). The thermodynamic changes associated with the transition (folded dimer to unfolded monomers) is calculated from the melting curves by fitting the data to a monomer-dimer equilibrium (J. P. Schneider, J. D. Lear and W. F. DeGrado, J. Am. Chem. Soc. 119, 5742, 1997). Global analysis of the thermal unfolding curves at two different concentrations, approximately 85 μM and 3 μM, gave a calculated ΔH° of 60.2 kcal mol^−1, Tm of 385.4 K and ΔCp of 530 cal mol^−1 K^−1 for Tfl-GCN4-p1 (1 M standard state); the corresponding values for Leu-GCN4-p1 are 70.3 kcal mol^−1, 365.6 K and 740 cal mol^−1 K^−1 respectively.

[6] = CD thermal denaturation of A1 proteins with two-state global fitting; format: physicochemical; settings: for ΔCp (1M) heat capacity change upon folding: 1M standard state, uncertainty 120; for ΔHm (1M) enthalpy of folding: at midpoint temperature, extrapolated to 1M standard state, uncertainty 4.8; for Tm (1M): extrapolated to 1M standard state by non-linear least square fit, uncertainty ± 1.5° C.; for Tm (10 μM): midpoint of thermal denaturation curve at 10 μM protein
Protocol: Insert: The thermal melting temperature (Tm) plotted as a function of level of incorporation. Tm is defined as the temperature at which 50% of the peptide has unfolded. The stability of the protein increases with increasing level of 2trifluoroleucine substitution. (10 μM protein concentration, PBS buffer, pH 7.4).
as §2, §3
Global thermodynamic fitting was used to obtain the thermodynamic quantities associated with the monomer to dimer transition for A1-WT and FA1-92. The intermediate level fluorinated proteins, FA1-17 and FA1-29 were not fitted using the procedure because the heterogeneity of the samples would not be described accurately by the two-state model. The presence of a heterogeneous population can be seen from the broadening of the thermal melting curves at substitution rates of 17 and 29%. However, even for the nearly completely substituted FA1-92, the protein sample was still a mixed population because Tfl was used as an equal molar mixture of (2S, 4S) and (2S, 4R) diastereomers. The free energy of unfolding for FA1-92 was 2.4 kcal/mol more favorable than A1-WT at 37° C., which corresponded to 0.4 kcal/mol of stabilizing energy per Tfl molecule involved at the helix interface. Considering the large number of leucines packed in the hydrophobic core of proteins, the additive stabilizing effects of Tfl can be quite substantial.

[7] = Urea titration of A1 proteins by CD; format: physicochemical; settings: 0° C., 10 μM protein, PBS, pH 7.4
Protocol: The fraction of unfolded protein is plotted against increasing urea concentration. Insert: The urea concentration at which 50% of protein is denatured is plotted against the extent of fluorination. (10 μM protein concentration, PBS buffer, pH 7.4).
as §2

[8] = global analysis of thermal unfolding curves, 1 M standard state

Chain of LeuRS (P07813 whole entry): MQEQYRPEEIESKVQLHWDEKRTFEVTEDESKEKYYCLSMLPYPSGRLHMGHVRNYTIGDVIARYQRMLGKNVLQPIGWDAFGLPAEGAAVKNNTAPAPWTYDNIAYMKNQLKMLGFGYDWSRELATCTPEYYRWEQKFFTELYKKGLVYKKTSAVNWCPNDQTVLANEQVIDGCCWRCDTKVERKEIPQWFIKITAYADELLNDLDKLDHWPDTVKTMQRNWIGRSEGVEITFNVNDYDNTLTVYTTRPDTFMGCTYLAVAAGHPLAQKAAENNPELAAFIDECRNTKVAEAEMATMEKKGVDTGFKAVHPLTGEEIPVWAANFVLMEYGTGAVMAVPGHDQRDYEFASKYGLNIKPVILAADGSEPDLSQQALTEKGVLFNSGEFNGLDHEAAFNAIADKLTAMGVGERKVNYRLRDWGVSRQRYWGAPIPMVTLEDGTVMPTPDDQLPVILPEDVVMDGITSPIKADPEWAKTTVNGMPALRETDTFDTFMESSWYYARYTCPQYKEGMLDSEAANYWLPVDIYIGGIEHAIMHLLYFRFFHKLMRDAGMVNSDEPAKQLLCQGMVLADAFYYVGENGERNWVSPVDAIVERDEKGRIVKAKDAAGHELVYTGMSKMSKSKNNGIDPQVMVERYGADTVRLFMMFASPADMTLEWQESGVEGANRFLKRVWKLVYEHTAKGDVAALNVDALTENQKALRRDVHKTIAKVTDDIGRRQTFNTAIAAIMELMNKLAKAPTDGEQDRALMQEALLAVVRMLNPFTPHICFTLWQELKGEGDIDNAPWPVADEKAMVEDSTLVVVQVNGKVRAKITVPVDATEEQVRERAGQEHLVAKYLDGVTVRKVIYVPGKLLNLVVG

Molecule: N[C@@H](CC(C(F)(F)F)C(F)(F)F)C(=O)O [Hfl, 5,5,5,5′,5′,5′-hexafluoroleucine]
ability to support protein synthesis (A1 expression) [1]: does not support measurable protein synthesis

Molecule: CC(C[C@H](N)C(=O)O)C(F)(F)F (stereo partly shown) [Tfl, 5,5,5-trifluoroleucine]
ability to support protein synthesis (A1 expression) [1]: support protein synthesis
specificity for LeuRS compared to leucine (LeuRS): reduced five times

Kd [2]: 12.8 ± 1 nM
Kd [3]: 4.8 ± 0.5 nM
Molecule: Leu-bZip: wild-type 56 amino acid segment (residues 226-281) of the eukaryotic transcription factor GCN4
recognition of nonspecific (NON) sequences [4]: lack of protein-bound DNA

Molecule: Leu-GCN4-p1: wild type form of the leucine zipper peptide GCN4-p1, not acylated at the N-terminus [reference compound]
thermal denaturation temperature (Tm) ([5]; CD spectroscopy, coiled-coil dimers): 48 °C
ΔH° ([5]; global analysis of thermal unfolding curves at approximately 85 μM and 3 μM, 1 M standard state): 294 kJ/mol
Tm [5, 8]: 92.5 °C
ΔCp [5, 8]: 740 cal mol^−1 K^−1

B1: FA1-92: trifluoroleucine-substituted A1 protein, 92% replacement of leucine by amino acid analysis (protein)
chain: MRGSHHHHHHGSMASGDLENEYAQLEREVRSLEDEAAELEQKVSRLKNEIEDLAEIGDLNNTSGIRRPAAKLN
Tm elevation compared to A1-WT ([6]; 10 μM protein, PBS, pH 7.4): 13 °C
ΔCp (1M) heat capacity change upon folding [6]: −272 cal/mol-K
free energy of unfolding more favorable than A1-WT ([6]; at 37° C.): 10 kJ/mol
stabilizing energy per Tfl molecule involved at the helix interface ([6]; at 37° C.): 1.7 kJ/mol
ΔHm (1M) enthalpy of folding [6]: -322 kJ/mol
Tm (1M) [6]: 116 °C
Tm (10 μM) ([6]; PBS, pH 7.4): 67 °C
resistance to thermal and chemical denaturation ([6]; thermal and chemical (urea) unfolding studies): highly resistant
Curea, 50% (Cm), midpoint urea denaturation concentration [7]: 7 M

B2: A1-WT: wild type leucine-zipper protein A1 with eight leucine residues, expressed in E. coli (protein)
chain: MRGSHHHHHHGSMASGDLENEYAQLEREVRSLEDEAAELEQKVSRLKNEIEDLAEIGDLNNTSGIRRPAAKLN
ΔCp (1M) heat capacity change upon folding [6]: −252 cal/mol-K
ΔHm (1M) enthalpy of folding [6]: -297 kJ/mol
Tm (1M) [6]: 103 °C
Tm (10 μM) ([6]; PBS, pH 7.4): 54 °C
Curea, 50% (Cm), midpoint urea denaturation concentration [7]: 2.7 M
Curea, 50% (Cm), midpoint urea denaturation concentration ([7]; listed as Al-WT): 2.8 M
